B1: CPEB3 Ribozyme (parent)
chain: GGGGGCCACAGCAGAAGCGUUCACGUCGCGGCCCCUGUCAGAUUCUGGUGAAUCUGCGAAUUCUGCUGU

Variants of: B1
Assay: self-cleavage, relative activity (ratio to wild type); higher = more cleavage; co-transcriptional

Variant | self-cleavage
C57U G58U | 0.42
C57U G58C | 0.451
C57U G58A | 0.289
G58U U67C | 1.01
G58U U67A | 0.982
G58U U67G | 1.02
A60G U61G | 0.533
A60G U61A | 0.632
A59U C63U | 0.734
A59U C63G | 0.545
A59U U67C | 0.867
A59U U67A | 0.805
A60G U69G | 1.01
G58U U61C | 0.892
G58U U61G | 0.908
A59C U69A | 0.813
A59C U69C | 0.934
A59C U69G | 0.824
C57A U61C | 0.273
G56A | 0.977
G56C | 0.871
G56U | 0.968
A59G U67G | 1.03
A59G U67A | 0.991

Variant | self-cleavage
A59G U67C | 0.976
C57G U61G | 0.439
C57G U61C | 0.377
C57G U61A | 0.399
G56U U69A | 1
G56U U69C | 1.04
G58A U64A | 0.92
G58A U64C | 0.861
G58C C66A | 0.818
G58C C66G | 0.884
G56A U67A | 0.927
G56A U67C | 0.913
G56A U67G | 0.995
C57A A59U | 0.46
C57A A59G | 0.426
C57U A59G | 0.354
C57U A59U | 0.256
G56C U67C | 0.878
G56C U67A | 0.941
G56C U67G | 0.758
G56U A60U | 0.293
G56U A60G | 0.712
C57A C66A | 0.37
C57A C66G | 0.373

Variant | self-cleavage
C57A C66U | 0.267
G58U A60U | 0.331
G58U A60G | 0.977
C57G U69C | 0.451
A60G C66A | 0.582
A60G C66G | 0.559
A60G C66U | 0.818
G58C A60G | 0.683
G58C A60C | 0.359
C57A C63G | 0.404
C57A C63U | 0.408
C57A C63A | 0.351
C57G A60U | 0.291
C57G A60G | 0.294
A59G U61C | 0.785
A59G C63A | 0.857
A59G C63G | 0.691
G58C C63G | 0.823
G58C C63A | 0.906
G58C C63U | 0.997
A60U G65U | 0.43
A60U G65A | 0.527
A60U U67A | 0.454
A60U U67C | 0.471

Variant | self-cleavage
G56U G65C | 0.506
A60C U69C | 0.627
A59G A60G | 0.533
A59G A60U | 0.352
A60U U69C | 0.754
A60U U69G | 0.614
A59C C66G | 0.441
A59C C66A | 0.365
G56C G68U | 0.971
G56C G68A | 0.918
A60G G65U | 0.412
A60G G65A | 0.373
G58A U61A | 0.827
G58A U61G | 0.861
G58A U61C | 0.82
G58C U69A | 0.998
G58C U69G | 1.05
A59U G68C | 0.941
G56C G65U | 0.512
G56C C57U | 0.483
G56C C57G | 0.343
G56C C57A | 0.3
C57A U64C | 0.401
C57A U64A | 0.357

Variant | self-cleavage
G56U C66A | 0.447
G56A U69G | 1.03
G56A U69C | 1.04
G56A G68A | 0.995
G58C U62A | 0.918
G58C U62C | 0.902
G58C G68A | 1
G58C G68C | 0.963
G58C G68U | 1.02
G56U U61A | 0.752
G56U G58U | 0.978
G56U G58A | 0.924
G56U G58C | 0.989
A59G G65C | 0.512
A59G G65U | 0.694
C57A G65A | 0.346
U55G U67C | 0.612
U55G U67A | 0.884
A60C G68U | 0.395
A60C G68C | 0.392
G58C A59U | 0.701
G58C A59C | 0.636
G58C A59G | 0.982
A60U C63U | 0.479

Variant | self-cleavage
A60U C63A | 0.391
A60U C63G | 0.38
A59G U62C | 0.717
A59G U62G | 0.944
C57U G68A | 0.395
C57U G68U | 0.416
A60C U67C | 0.313
A60C U67G | 0.37
A60C U67A | 0.358
A60C U61A | 0.472
A60C U61G | 0.3
A59U G65U | 0.329
A59U G65C | 0.497
A59U G65A | 0.531
A59G C66A | 0.779
A59G C66G | 0.893
A59C U62G | 0.423
A59C U62C | 0.407
G58A U67A | 0.968
G58A U67C | 0.993
G56C C66U | 0.748
G56C C66G | 0.517
G56C C66A | 0.39
A59C U67C | 0.806

Variant | self-cleavage
A59C U67A | 0.689
G56A A60C | 0.382
G56A A60G | 0.856
G56A A60U | 0.326
A59G U69A | 1.04
A59G U69G | 1.07
C57U U62C | 0.41
C57U U62A | 0.363
G56C U69G | 0.925
G56C U69A | 0.874
G56C U69C | 1.02
A60C C63G | 0.344
A60C C63U | 0.468
C57A A60C | 0.264
C57A A60U | 0.415
C57A G58U | 0.367
C57A G58A | 0.313
A60U U64C | 0.445
G56A C63G | 0.667
G56A C63U | 0.943
G58C U61G | 0.912
G58C U61A | 0.877
A60U U62A | 0.551
A60U U62C | 0.492

Variant | self-cleavage
G56A G65A | 0.777
G56A G65U | 0.627
G56A G65C | 0.508
A59G G68U | 1.02
A59G G68A | 1
G58U U62G | 1.01
G58U U62A | 0.958
G58U U62C | 0.953
G58U A59C | 0.8
G58U A59U | 0.749
C57G G68C | 0.388
C57G G68A | 0.374
C57A G68U | 0.394
C57A G68A | 0.367
A60C C66G | 0.456
A60C C66U | 0.412
C57U U64G | 0.365
A60U U61G | 0.556
A60U U61C | 0.629
G58A U69A | 0.99
G58A U69G | 1.02
A59G U64A | 0.861
A59G U64C | 0.873
A59U A60G | 0.56

Variant | self-cleavage
A59U A60U | 0.312
A59U A60C | 0.343
A59U U62A | 0.536
A59U U62C | 0.546
A59U U62G | 0.394
A59C G65C | 0.374
U61A C63A | 0.729
G58A G68A | 0.944
A60G U62C | 0.436
A60G U62G | 0.687
C57U U61G | 0.463
C57U U61C | 0.371
A60G G68U | 0.954
C57U C63G | 0.397
C57U C63A | 0.438
A60C G65C | 0.449
A59U U61G | 0.512
A59U U61C | 0.358
A59U U61A | 0.443
G56A U61A | 0.824
A60C U62G | 0.429
G58C U67A | 0.988
G58C U67C | 0.961
C57U C66G | 0.317

Variant | self-cleavage
C57U C66A | 0.316
G58A A60C | 0.495
G58A A60U | 0.919
G58A A60G | 0.83
A59C C63A | 0.43
G58C G65A | 0.844
G58C G65U | 0.842
G56U G68U | 0.985
G58A C66U | 0.938
G58A C66G | 0.881
G58A C66A | 0.81
G58U G68C | 1.03
G58U G68U | 0.966
G58U G68A | 0.993
A59C U64G | 0.633
A59C U64A | 0.471
G58A U62C | 0.872
G56U C63A | 0.51
G56U C63G | 0.485
G56U C63U | 0.842
G56C U62A | 0.355
G56C U62C | 0.524
C57G U67A | 0.325
C57G U67C | 0.428

Variant | self-cleavage
C57G U67G | 0.489
G58U U69G | 1.03
A59U C66U | 0.775
G56C A60U | 0.795
G56C A60G | 0.608
C57U G65A | 0.357
C57U G65C | 0.374
G56A A59U | 0.735
G56A A59G | 0.649
A59C A60G | 0.535
A59C A60C | 0.38
C57G G58U | 0.463
C57G G58C | 0.356
C57G G58A | 0.377
A60C U64G | 0.333
A60C U64A | 0.267
G58C U64C | 0.777
G58C U64A | 0.955
G58U C63U | 1.03
G58U C63G | 1.01
G56U C57G | 0.384
A59C U61C | 0.446
C57A U67G | 0.445
G56A C57A | 0.413

Variant | self-cleavage
G56A C57U | 0.308
G56A C57G | 0.306
U55G U69A | 0.953
U55G U69G | 1
G56A U64A | 0.798
U61A | 0.96
G58A A59C | 0.558
G58A A59G | 0.949
G58A A59U | 0.592
C57G U64C | 0.38
C57G U64A | 0.349
C57G U64G | 0.394
C57U A60G | 0.39
C57U A60C | 0.372
C57U A60U | 0.298
G56U U64C | 0.762
C57U U69A | 0.478
C57U U69G | 0.473
G56C U61A | 0.554
G56C U61G | 0.483
G56C U61C | 0.434
C57G A59U | 0.388
C57G A59G | 0.375
C57A U69A | 0.377

Variant | self-cleavage
C57A U69G | 0.455
A59U U64G | 0.729
A59U U64C | 0.558
A59U U64A | 0.459
G56C A59U | 0.392
G58U C66U | 1.02
G58U C66A | 0.928
A59C G68U | 0.939
A59C G68A | 0.908
A60G U67G | 0.902
A60G U67C | 0.747
G56A U62G | 0.775
G56A U62A | 0.811
G56A U62C | 0.732
G56A C66G | 0.744
G56A C66U | 0.929
C57A U62C | 0.339
C57A U62G | 0.409
A59U U69C | 1.02
G56A G58U | 0.994
C57G G65C | 0.428
C57G G65A | 0.37
C57G G65U | 0.254
C57G U62A | 0.333

Variant | self-cleavage
C57G C66A | 0.308
G58U G65C | 0.863
G56U A59G | 0.909
G56U U62G | 0.563
G56U U62A | 0.654
G56U U62C | 0.67
G56C U64A | 0.504
G56C U64C | 0.637
G58A G65A | 0.901
C57U U67G | 0.509
C57U U67C | 0.465
C57U U67A | 0.365
C57G C63A | 0.291
A60U C66U | 0.505
G58U U64G | 0.971
G58U U64C | 0.959
G58U U64A | 0.956
A60G C63G | 0.545
A60G C63A | 0.429
A60G C63U | 0.867
G58A C63U | 0.957
G58A C63G | 0.757
